Paper PMC11206678, “Peptide-Alkoxyamine Drugs: An Innovative Approach to Fight Schistosomiasis: “Digging Their Graves with Their Forks”” (Pathogens, 2024)
Counter-ions that a name gives are not always drawn.

Key:
[1] = Homolysis kinetics of alkoxyamines by EPR (growth of nitroxide); type: physicochemical; details: mixture of diastereoisomers; for Homolysis rate constant kd: 0.1 mM alkoxyamine, O2 as alkyl radical scavenger; for Activation energy Ea: by Equation (2) from kd and T, A = 2.4 10^14 s^−1
Experimental: Preparation of alkoxyamines and reference samples. All reagents including anhydrous solvents used for the chemical synthesis were purchased from commercially available sources such as Merck, TCI, and Fluorochem, and were used without further purification. All air and/or water-sensitive reactions were carried out under an argon atmosphere with dry solvents using standard syringe-cannula/septa techniques. Routine monitoring of reactions was performed using Merck Silica gel 60 F254, aluminum-supported TLC plates; spots were visualized using UV light and ethanolic acidic para-anisaldehyde solution or ethanolic phosphomolybdic solution, followed by heating. Purifications by means of column chromatography were performed with Silica gel 60 (230–400 mesh). ^1H, ^13C, and ^19F NMR spectra were obtained in CDCl3, MeOD (with residual H2O), D2O, DMSO-d6, or C6D6 solutions on by using Bruker AC400 (400 MHz) and Bruker AC300 (300 MHz) spectrometers. High-resolution mass spectra (HRMS) have been performed using a SYNAPT G2 HDMS (Waters) mass spectrometer equipped with a pneumatically assisted atmospheric pressure ionization (API) source. The sample was ionized in positive electrospray mode under the following conditions: electrospray voltage: 2.8 kV; port voltage: 20 V; Nebulizing gas flow rate (nitrogen): 100 L/h or in negative electrospray mode under the following conditions: electrospray voltage: −2.27 kV; port voltage: −20 V; Nebulizing gas flow rate (nitrogen): 100 L/h. The mass spectra (MS) were obtained with a time-of-flight (TOF) analyzer. The exact mass measurements were carried out in triplicate with external calibration. Homolysis constants were measured by EPR on an EMX Bruker spectrometer from 10^−4 M samples in tertbutyl benzene or in a mixture of H2O-nPrOH (1:1; v:v).
Kinetic experiments. Kinetics of A1–A7 (Scheme 2) for series L and D are performed by monitoring the growth of nitroxide by Electron Paramagnetic Resonance (X-band EMX Bruker machine) in tert-butylbenzene and a water/n-PrOH (for a good solubility of the alkoxyamine) as solvents and using O2 as alkyl radical scavenger to suppress the back reaction (kc in Scheme 2) as already reported. Homolysis rate constants kd are given by Equation (1) ([nitroxide]∞ = [alkoxyamine]0 = 0.1 mM, see Table S1) and the subsequent activation energies Ea given by Equation (2). (1) lnnitroxide∞−nitroxidet/nitroxide∞=−kd·t, (2) Ea=−RTlnkd/A.

[2] = system: Schistosoma mansoni adult worms; test: Viability of Schistosoma mansoni adult worms in vitro; type: cell-based, Schistosoma mansoni NMRI strain; details: 37 °C; for time to kill all parasites / time to reach the death of half of the population of worms: Table S1, dose at 100 μg/ml, unit not given in Table S1 (h in Table 2); for Activity/toxicity towards schistosomes (in words): adult worms, 100 μg/mL
Experimental: Experiments on the viability of Schistosoma mansoni adult worms. In vitro tests were performed on Schistosoma mansoni NMRI strains. This parasite is lab maintained on Biomphalaria glabrata (BRE strain) as intermediate mollusc host and Golden Hamster (Janvier Labs, Le Genest-Saint-Isle, France) as definitive vertebrate host. Methods, for molluscs’ and hamsters’ infection and for parasite recovery, were previously described. Adult worms were recovered by hepatic perfusion technique between 42 and 47 days post hamster exposition to parasite larvae. Worms were carefully collected and disposed in 12-well Falcon® plate containing 2 mL of RPMI 1640 (supplemented with L-glutamine and Hepes 25 mM). The plates containing a minimum of 15 worms by well were then placed in an incubator chamber at 37 °C and 5% CO2. The worms sex ratio was almost balanced in each well. The drug was first dissolved in DMSO (Sigma-Aldrich) to give a 100 mg/mL mother solution. Then the stock solution was complemented with Tween 80 and RPMI to obtain the following final ratio dilution: RPMI 1640/Tween 80/DMSO and 1000/0.95/3.8, v/v/v.
All molecules were tested at a final concentration of 100 µg/mL and 10 µg/mL. A negative control consisted in adding the same RPMI 1640/Tween 80/DMSO solution, but without any drug and a positive control consisted in adding praziquantel. All molecules and control were performed in duplicates of well. The worm viability was checked after 1, 2, 3, 4, 5, 6, 7, 8, 24, 48, and 72 h after adding the molecule.

Vero cells = type: cell-based; details: 48 h
Experimental: A non-cancer line of Vero cells was used to determine the cytotoxicity of the compound against mammalian cells. They were evaluated at a final DMSO concentration of 0.5%. The culture medium was MEM (Dutscher, Bernolsheim, France) supplemented with 10% fetal bovine serum (Fisher Scientific, Illkirch, France), 1X non-essential amino acids (Fisher Scientific, Illkirch, France), 100 U/mL, 100 µg/mL penicillin/streptomycin (Fisher Scientific, Illkirch, France), and 2 mM L-glutamine (Fisher Scientific, Illkirch, France) at 37 °C in a humidified 5% CO2 atmosphere. Vero cells (100 µL of 10^5 cells/mL per well) were plated in 96-well plates for 24 h then treated with 100 µL of compound dilutions (in duplicate) during 48 h. All molecules were tested from 5 nM to 50 µM. Each well was then examined under the microscope to detect any precipitate formation before the supernatant was removed by flicking the plate. A volume of 100 µL of 0.5 mg/mL in MEM from a stock solution at 5 mg/mL of PBS-dissolved MTT (3-(4,5-dimethylthiazol-2-yl)-2,5-diphenyltetrazolium bromide, Sigma Aldrich/Merck, Darmstadt, Germany) was then added to each well [20].
After incubation for 1 h at 37 °C and 5% CO2 the supernatant was removed and 100 µL of DMSO were added. Plates were gently shaken to dissolve formazan crystals resulting from the MTT reduction by living cells and read at 570 nm with the VICTOR Nivo plate reader (Perkin Elmer, Waltham, MA, USA). CC50 values were determined using GraphPad Prism 7 software (San Diego, CA, USA).

[3] = C–ON bond homolysis in water/n-PrOH v/v 1:1, EPR, T (°C): A1L 95.1, A3L 94.5, A4L 94.6, A5L 94.0, A6L 94.8, A7L 94.3, A1D 93.5, A3D 92.6, A4D 95.0, A5D 94.6

SMILES	Homolysis rate constant kd [1, 3]	Activation energy Ea ([1]; in water/n-PrOH v/v 1:1) [kcal/mol]	time to kill all parasites [2]	time to reach the death of half of the population of worms [2]	Activity/toxicity towards schistosomes (in words) [2]	CC50 (Vero cells) [nM]	Homolysis rate constant kd ([1]; C–ON bond homolysis in t-BuPh, EPR, T (°C): A1L 128.0, A3L 125.0, A5L 130.0, A6L 125, A7L 126.5, A1D 122.5, A3D 119.8, A5D 130)	Activation energy Ea ([1]; in t-BuPh) [kcal/mol]
CC(ON1C(C)(C)CCCC1(C)C)c1ccc(NC(=O)[C@@H](Cc2ccccc2)NC(=O)[C@H](NC(=O)[C@H](N)Cc2ccccc2)C(C)C)cc1 (stereo partly drawn) [A4D, (2R)-1-(((2R)-3-methyl-1-oxo-1-(((2R)-1-oxo-3-phenyl-1-((4-(1-((2,2,6,6-tetramethylpiperidin-1-yl)oxy)ethyl)phenyl)amino)propan-2-yl)amino)butan-2-yl)amino)-1-oxo-3-phenylpropan-2-aminium trifluoroacetate]	1.2 10^−4 s^−1	30.81	7	2	toxic to schistosomes	2600 ± 300		
CC(ON1C(C)(C)CCCC1(C)C)c1ccc(NC(=O)[C@@H](Cc2ccccc2)NC(=O)[C@H](NC(=O)[C@H](N)Cc2ccccc2)C(C)C)cc1 (stereo partly drawn) [A5D, (2R)-2-((R)-2-amino-3-phenylpropanamido)-3-methyl-N-((2R)-1-oxo-3-phenyl-1-((4-(1-((2,2,6,6-tetramethylpiperidin-1-yl)oxy)ethyl)phenyl)amino)propan-2-yl)butanamide]	1.3 10^−4 s^−1	30.71	4	1	toxic to schistosomes	2200 ± 300	11.6 10^−4 s^−1	31.72
